Measured values from patent publication US7740850B2, “PDGFRβ-specific antibodies” (ImClone, LLC, priority 2007, dated 2010).

B1: 1B3: human anti-mouse PDGFRβ antibody from Fab phage display library, human κ/γ1 constant regions; SEQ ID NOS in Table 1 (antibody, listed as Homo sapiens, V domains shown)
VH: QVQLQESGGGLVKPGGSLRLSCAASGFTFSSYSMNWVRQAPGKGLEWVSSISSSSSYIYYADSVKGRFTISRDNSKNTLYLQMNSLRAEDTAVYYCAKGGRPLLVFDFWGQGTLVTVS
VL: EIVMTQSPGTLSLSPGERATLSCRASQSVSSSYLAWYQQKPGQAPRLLIYDASKRATGIPARFSGSGSGTDFTLTISTLESEDSAVYYCQQRGYWPPITFGQGTRLEIKR
modifications: human kappa/gamma1 constant regions
B2: 2C5: PDGFRβ-specific human antibody binding both human and murine PDGFRβ; SEQ ID NOS in Table 1 (antibody, listed as Homo sapiens, V domains shown)
VH: QVQLVQSGAEVKKPGSSVKVSCKASGGTFSSYAISWVRQAPGQGLEWMGRIIPILGIANYAQKFQGRVTITADKSTSTAYMELSSLRSEDTAVYYCARDMGSRNYYYFYWGQGTLVTVSS
VL: EIVLTQSPATLSLSPGERATLSCRASQSVGRYLAWYQQKPGQAPRLLIYGASNRATGIPARFSGSGSGTDFTLTISSLEPEDFAVYYCQQRSNWPLTFGGGTKVEIK

How the values were obtained:
[1] = system: NCI-H460 lung carcinoma xenograft; type: in vivo; settings: for Tumor Volume T/C %: NCI-H460 xenograft, monotherapy
Method: Six xenograft models, SK-OV-3, OV-CAR-8, BxPC-3, OV-CAR-5, Caki-1 and NCI-H460 (A to F, respectively) were used to examine the effects of 1B3 on xenograft tumors in athymic nude mice. Mice with established tumors (˜250-300 mm^3) were randomly grouped and treated with 1B3, normal human IgG, or saline by intraperitoneal injection twice weekly (except for BxPC-3 model where the mice were treated three times a week) at the dose indicated.
Subcutaneous xenografts of BxPC-3 (A) or 5×10^6 NCI-H460 (B) were established in female athymic (nu/nu) mice. When tumors reached ˜300-350 mm^3, mice were randomized and divided into four groups (n=12), and treated with USP saline, 40 mg/kg of 1B3, 40 mg/kg of DC101 or 40 mg/kg 1B3 plus 40 mg/kg DC101, three times a week.
Six human xenograft tumor models, including three ovarian carcinoma (SK-OV-3, OV-CAR-5 and OV-CAR-8), one pancreatic carcinoma (BxPC3), one lung carcinoma (NCI-H460), and one kidney carcinoma (Caki-1), were used to assess the antitumor activity of 1B3 in vivo. Athymic (nu/nu) mice (female, 7-8 weeks of age) were housed for 7-10 days before xenograft implantation. Each mouse was injected subcutaneously with 3-10×10^6 cells of SK-OV-3, OVCAR-5, OVCAR-8, Caki-1, BxPC3 or NCI-H460 tumor cells. When tumors reached approximately 250-300 mm^3, mice were randomized into groups of 10 to 12 animals each and treated by intraperitoneal injection, 2 to 3 times per week, with 1B3, DC101, or 1B3 in combination with DC101. Human IgG and/or USP saline were used as control groups. Tumor sizes and mouse body weight were measured twice a week. Tumor volume was calculated using the formula: π/6×(length×width^2), where length=longest diameter and width=diameter perpendicular to length. The ratio of average tumor volume in the treatment group versus that in the control group (T/C %) was calculated. Statistic analysis was performed by Student's t-test.
To study the antitumor effects of monotherapy with an anti-PDGFRβ antibody, mice were treated with 1B3, normal human IgG, or saline twice weekly by intraperitoneal injections. In SK-OV-3 model, tumor-bearing mice were given 1B3 at 6, 20, or 60 mg/kg dose.
Athymic nude mice bearing xenografted tumors of 300-350 mm^3 size were randomized and divided into four treatment groups (n=12/group), and were treated by intraperitoneal injections three times a week with saline, 1B3 (40 mg/kg), DC101 (40 mg/kg), or 1B3 (40 mg/kg) plus DC101 (40 mg/kg).
The five human xenograft tumor models described above (OVCAR-5 and OVCAR-8, BxPC3, NCI-H460, and Caki-1) were used to assess the antitumor activity of 2C5 in vivo.

hPDGFRβ = hPDGFRβ (Homo sapiens, UniProt P09619); assay: Antibody affinity determination (BIAcore, surface plasmon resonance); type: binding; settings: one experiment
Sequence of hPDGFRβ (P09619 33-1106): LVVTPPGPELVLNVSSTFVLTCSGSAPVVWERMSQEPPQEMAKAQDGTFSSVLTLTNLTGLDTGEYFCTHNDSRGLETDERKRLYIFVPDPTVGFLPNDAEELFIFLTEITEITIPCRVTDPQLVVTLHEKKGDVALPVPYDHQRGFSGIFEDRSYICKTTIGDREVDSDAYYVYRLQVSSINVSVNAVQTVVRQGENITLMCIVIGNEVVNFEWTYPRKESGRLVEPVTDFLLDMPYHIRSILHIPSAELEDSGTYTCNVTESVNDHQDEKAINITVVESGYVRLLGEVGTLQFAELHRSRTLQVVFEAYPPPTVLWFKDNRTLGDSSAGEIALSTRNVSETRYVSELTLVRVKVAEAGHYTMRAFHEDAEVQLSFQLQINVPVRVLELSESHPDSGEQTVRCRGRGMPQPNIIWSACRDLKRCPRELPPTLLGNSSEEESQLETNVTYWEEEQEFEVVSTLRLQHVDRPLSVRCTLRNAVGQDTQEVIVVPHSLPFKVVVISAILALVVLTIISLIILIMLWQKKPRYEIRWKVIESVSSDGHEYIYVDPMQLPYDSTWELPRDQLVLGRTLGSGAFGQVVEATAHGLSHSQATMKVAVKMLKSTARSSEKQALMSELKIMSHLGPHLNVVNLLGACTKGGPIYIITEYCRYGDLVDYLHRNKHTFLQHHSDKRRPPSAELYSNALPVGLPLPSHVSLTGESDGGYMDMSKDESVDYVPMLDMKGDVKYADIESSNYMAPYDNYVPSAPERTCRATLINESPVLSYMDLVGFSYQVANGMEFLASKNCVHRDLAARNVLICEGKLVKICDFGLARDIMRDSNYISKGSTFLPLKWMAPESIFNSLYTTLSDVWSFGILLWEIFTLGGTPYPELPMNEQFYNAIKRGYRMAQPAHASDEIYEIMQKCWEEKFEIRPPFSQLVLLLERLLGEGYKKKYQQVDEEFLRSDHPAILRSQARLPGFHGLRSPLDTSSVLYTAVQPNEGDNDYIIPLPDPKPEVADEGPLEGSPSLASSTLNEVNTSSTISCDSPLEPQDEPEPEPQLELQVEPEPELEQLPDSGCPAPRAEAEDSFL
Method: Antibody affinity determination. The binding kinetics of various Fab and IgG to mPDGFRβ were measured using a BIAcore 3000 biosensor (BIACORE, Inc., Uppsala, Sweden). Briefly, mPDGFRβ was immobilized onto a sensor chip and soluble antibodies were injected at concentrations ranging from 1.5 nM to 100 nM. Sensorgrams were obtained at each concentration and were evaluated using the program, BIA Evaluation 2.0. The affinity constant, Kd, was calculated from the ratio of dissociation rate (koff)/association rate (kon) (Lu, D. et al., 2002; Zhu, Z. et al., 1998; Loizos, N. et al., 2005).
As determined by BIAcore analysis, 2C5 binds to hPDGFRβ with similar binding characteristics as 1B3 binds to mPDGFRβ. […] However, whereas 1B3 binds to murine PDGFRβ but not human PDGFRβ, 2C5 binds to both proteins. (FIG. 6).

β1-2 = target: T1, β1-2 (Homo sapiens, UniProt P09619); assay: Epitope mapping, shorter version of PDGFRβ (D1D2); type: binding; settings: ✓ / X, key not given
T1 construct: Shorter versions of PDGFRβ, including D1D2, D2D3 and D1D2D3, were then made; made in house
T1 sequence (P09619 33-210): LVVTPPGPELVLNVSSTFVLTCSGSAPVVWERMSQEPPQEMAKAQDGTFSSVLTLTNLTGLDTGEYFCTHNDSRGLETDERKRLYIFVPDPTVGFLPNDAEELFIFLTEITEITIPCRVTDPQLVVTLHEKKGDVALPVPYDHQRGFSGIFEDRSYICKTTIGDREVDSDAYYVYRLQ
Method: (§1) 2C5 binds to domain 1 (D1) and domain 2 (D2) of PDGFRβ. Various chimeric constructs of PDGFRβ and PDGFRα were first made by domain swapping, starting from N-terminus to C-terminus with PDGFRβ domain(s) replacing PDGFRα domain(s). The PDGFRβ/α chimera were tested for the ability of 2C5 binding. Shorter versions of PDGFRβ, including D1D2, D2D3 and D1D2D3, were then made to confirm the 2C5 binding domains on PDGFRβ.

[2] = system: Akt and p44/42 MAP kinase in Caki-1 cells; assay: PDGF-BB-stimulated downstream signaling (Western blot); type: cell-based, human
Method: To study the downstream signaling, the cell lysate from the above treatment were resolved by a 4-12% NuPAGE Bis-Tris gel. Phosphorylated Akt and p44/42 mitogen-activated protein kinase (MAPK) were detected using an anti-phospho-Akt and an anti-phospho-p44/p42 MAPK and p44/p42 MAPK, respectively (eBioscience, San Diego, Calif.).
2C5 inhibits PDGF-BB-stimulated receptor phosphorylation and downstream signaling in a cell-based assay. The ability of 2C5 to block PDGFRβ phosphorylation was determined for human Caki-1 tumor cells (FIG. 7) and mouse NIH/3T3 and D122 cells lines (FIG. 8).

h5β = h5β (Homo sapiens, UniProt P09619); assay: Epitope mapping; type: binding; settings: ✓ / X, key not given
Sequence of h5β (P09619 33-532 limits assumed): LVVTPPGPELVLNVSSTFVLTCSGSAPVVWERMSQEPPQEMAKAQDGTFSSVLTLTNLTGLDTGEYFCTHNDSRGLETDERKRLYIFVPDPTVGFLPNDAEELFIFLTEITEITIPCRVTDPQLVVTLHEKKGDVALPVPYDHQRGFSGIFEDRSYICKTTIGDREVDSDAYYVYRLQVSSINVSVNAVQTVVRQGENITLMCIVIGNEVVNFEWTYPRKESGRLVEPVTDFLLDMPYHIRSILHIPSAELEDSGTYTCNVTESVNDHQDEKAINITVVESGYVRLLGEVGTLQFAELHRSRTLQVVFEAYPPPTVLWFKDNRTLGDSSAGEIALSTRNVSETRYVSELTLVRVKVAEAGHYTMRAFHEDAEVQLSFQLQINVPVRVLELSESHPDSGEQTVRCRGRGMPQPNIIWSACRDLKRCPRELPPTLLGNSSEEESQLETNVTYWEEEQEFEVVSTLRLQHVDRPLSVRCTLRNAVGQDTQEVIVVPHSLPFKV
Method: as §1, with “Various” for “2C5 binds to domain 1 (D1) and domain 2 (D2) of PDGFRβ. Various”

Molecule | T/C % on day 22 post treatment ([1]; NCI-H460, 40 mg/kg each antibody i.p. three times a week) | tumor growth inhibition ([1]; NCI-H460, 60 mg/kg i.p. twice weekly) | Tumor Volume T/C % [1] | Kd (hPDGFRβ) | binding to β1-2 (β1-2) | inhibition of PDGF-BB-stimulated phosphorylation of Akt and p44/42 MAP kinase [2] | binding to h5β (h5β)
B1 | 66% | significantly slowed the growth | 60% | 0.0417 nM | – | – | –
B2 | – | – | 60% | 0.0136 nM | ✓ | potently inhibited | ✓
